Assay results: patent US20210277102A1, “COMPOSITIONS AND METHODS FOR TREATING A TUMOR SUPPRESSOR DEFICIENT CANCER” (BETH ISRAEL DEACONESS MEDICAL CENTER, INC., priority 2016, published 2021)

What was measured:
mouse GPR35 = mouse GPR35 (Mus musculus, UniProt Q9ES90); conditions: in vitro; cited from earlier work
GPR35 [1] = molecular target: T1, GPR35 (Homo sapiens, UniProt Q9HC97); conditions: in vitro; cited from earlier work
Target sequence in this assay (Q9HC97 whole entry): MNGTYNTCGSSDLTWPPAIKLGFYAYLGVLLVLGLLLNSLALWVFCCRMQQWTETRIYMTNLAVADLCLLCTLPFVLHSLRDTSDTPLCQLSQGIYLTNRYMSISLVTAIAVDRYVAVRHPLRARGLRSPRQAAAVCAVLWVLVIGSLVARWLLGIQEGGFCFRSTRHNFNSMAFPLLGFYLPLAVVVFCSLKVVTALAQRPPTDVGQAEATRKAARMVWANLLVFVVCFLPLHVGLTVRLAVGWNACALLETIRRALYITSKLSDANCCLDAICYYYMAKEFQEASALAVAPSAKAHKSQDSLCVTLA

prostate cancer = conditions: phase III clinical trial in prostate cancer, unselected patients; cited from earlier work
[2] = system: Gr1+ cells isolated from the bone marrow of healthy mice; assay: Transwell migration assay with recombinant proteins, Gr1+ cells; format: cell-based, mouse; conditions: Gr1+ cells mostly Ly6G+/Ly6C^int PMN cells; increasing concentration of recombinant protein
Excerpt: (§1) Gr1+ cells and monocytes were isolated from the bone marrow (tibias and femurs) of C57BL/6 wild type, 3 months old mice using the MACS Myltenyi Biotec Cell Isolation system according to the manufacturer's instruction. For monocytes isolation the Monocyte Isolation Kit (BM) (Miltenyi 130-100-629) was used, whereas Gr1 positive cells were isolated using the antibody Anti-Gr-1-Biotin, clone RB6-8C5 (Miltenyi 130-101-894). Red blood cells were lysed with the ACK lysis buffer (ThermoFisher Scientific A1049201). Total bone marrow cells and Gr1+ cells were cultured for 4 days. Briefly, 40 ng/ml GM-CSF (PeproTech #315-03) and 40 ng/ml IL-6 (PeproTech #216-16) were added to the control medium RPMI 1640 (ThermoFisher Scientific 11875-093), supplemented with penicillin-streptomycin, 10% FBS, 10 mM HEPES, 20 μM 2-Mercaptoethanol. Either recombinant mouse CXCL5 (BioLegend #573302) or recombinant mouse CXCL17 (BioLegend #585402) was added at the beginning of the experiment (200 nM). For the migration assay 2.5×10^5 MACS sorted cells were resuspended in 100 μL of either RPMI 1640 control medium or organoid complete medium and placed on the upper well of the transwell system (5 μm, Corning #160241). […] The migration of cells was quantified by flow cytometry, 15 seconds acquisition time, using BD LSR II flow cytometer.

[3] = system: whole bone marrow (BM) mouse cells and Gr1+ cells isolated from the BM; assay: 4-day culture of bone marrow and Gr1+ cells in GM-CSF, IL-6 medium plus recombinant chemokine (flow analysis, qRT-PCR); format: cell-based; conditions: 4 days culture, GM-CSF and IL-6, recombinant chemokine 200 nM
Excerpt: Gr1+ cells and monocytes were isolated from the bone marrow (tibias and femurs) of C57BL/6 wild type, 3 months old mice using the MACS Myltenyi Biotec Cell Isolation system according to the manufacturer's instruction. For monocytes isolation the Monocyte Isolation Kit (BM) (Miltenyi 130-100-629) was used, whereas Gr1 positive cells were isolated using the antibody Anti-Gr-1-Biotin, clone RB6-8C5 (Miltenyi 130-101-894). Red blood cells were lysed with the ACK lysis buffer (ThermoFisher Scientific A1049201). Total bone marrow cells and Gr1+ cells were cultured for 4 days. Briefly, 40 ng/ml GM-CSF (PeproTech #315-03) and 40 ng/ml IL-6 (PeproTech #216-16) were added to the control medium RPMI 1640 (ThermoFisher Scientific 11875-093), supplemented with penicillin-streptomycin, 10% FBS, 10 mM HEPES, 20 μM 2-Mercaptoethanol. Either recombinant mouse CXCL5 (BioLegend #573302) or recombinant mouse CXCL17 (BioLegend #585402) was added at the beginning of the experiment (200 nM). For the migration assay 2.5×10^5 MACS sorted cells were resuspended in 100 μL of either RPMI 1640 control medium or organoid complete medium and placed on the upper well of the transwell system (5 μm, Corning #160241). The migration assay with recombinant proteins was performed by adding to the bottom well 600 μL of RMPI1640 control medium supplemented with the indicated amount of either CXCL5 or CXCL17. The migration assay with organoid conditioned medium was performed by adding to the bottom well 600 μL of medium collected over 5 days of culture of prostate organoids with the indicated genotype. The migration of cells was quantified by flow cytometry, 15 seconds acquisition time, using BD LSR II flow cytometer.
For Flow Cytometry, spleen and lymph node single cell suspensions were prepared by mashing the tissue in 2% FBS/PBS. Tumor and control prostate tissue (from anterior lobes) single cell suspension was prepared by mincing the tumor and digestion with Collagenase Type I (Life Technologies #17018029) in 10% DMEM (GIBCO) for 1 hr at 37° C. Cell suspensions were passed through […] cell strainers to obtain single cell suspensions. Blood samples and single cell suspensions were re-suspended in 1-2 ml of ACK red cell lysis buffer (GIBCO) and lysed on ice for 1 minute. Cell suspensions were then washed in 2% FBS/PBS, centrifuged and re-suspended in 0.5-1 ml of 2% FBS/PBS. For flow cytometry, 100 μl of cell suspension was stained in a 96-well U-bottom plate and the following antibodies were used: CD45.2-Pacific Blue (BioLegend #109820), CD45.2-APC (eBioscience #17-0454-82), CD45.2-FITC (eBioscience #11-0454-85), Gr-1-FITC (eBioscience #11-5931), Gr-1-PE (eBioscience #12-5931-81), CD11b-PECy7 (eBioscience #25-0112), CD11b-FITC (eBioscience #11-0112-82), Ly6C-PE (eBioscience #12-5932-80), Ly6G-APC-Cy7 (BioLegend #127623), Ly6G-APC (BioLegend #127613), CD3-PE (eBioscience #12-0031), CD4-APC (BioLegend #100515), CD4-PE-Cy7 (eBioscience #25-0042-82), CD8-APC (BioLegend #100721), CD8-FITC (eBioscience #11-0081-85), B220-FITC (eBioscience #11-0452), CD19-PerCP-Cy5.5 (eBioscience #45-0193), F4/80-APC (eBioscience #17-4801), CD44-FITC (BD Pharmingen #561859), CD62L-APC (BioLegend #104411), CD206-PE (BioLegend #141705) and CD49f-APC (eBioscience #17-0495). All antibodies were used 1:100. To assess cell viability, cells were incubated with either DAPI or TO-PRO3 prior to FACS analysis. Foxp3 staining was done using FOXP3 Fix/Perm Buffer Set (BioLegend) and cells were stained by Foxp3-FITC antibody (eBioscience #11-5773). All staining mixtures were analyzed on a BD LSR II flow cytometer (Becton Dickinson). Resulting profiles were further processed and analyzed using the FlowJo 8.7 software.
Microarray analysis and gene set enrichment analysis on mouse tumor tissue were conducted and analyzed as previously described by Palucka, A. K. et al. (Palucka, A. K. et al. Cell 164, 1233-1247 (2016)). […]

GPR35 [4] = molecular target: T1, GPR35; conditions: cited from earlier work
Target sequence in this assay (Q9HC97 whole entry, species assumed): as the sequence (Q9HC97 whole entry) above

[5] = system: monocytes isolated from the bone marrow of healthy mice; assay: Transwell migration assay with recombinant proteins, monocytes; format: cell-based, mouse; conditions: increasing concentration of recombinant protein in bottom well
Excerpt: as §1

mouse GPR35, sequence (Q9ES90 whole entry): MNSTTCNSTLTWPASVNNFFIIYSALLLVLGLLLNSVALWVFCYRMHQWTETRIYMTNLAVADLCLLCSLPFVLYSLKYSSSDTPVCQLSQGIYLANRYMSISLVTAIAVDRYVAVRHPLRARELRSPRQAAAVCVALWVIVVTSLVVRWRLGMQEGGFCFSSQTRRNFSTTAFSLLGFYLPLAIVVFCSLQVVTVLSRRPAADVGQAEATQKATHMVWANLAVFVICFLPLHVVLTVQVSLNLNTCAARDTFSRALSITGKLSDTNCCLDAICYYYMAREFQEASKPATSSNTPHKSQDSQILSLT

Molecule | antagonist activity at mouse GPR35 (mouse GPR35) | migration of Gr1+ cells toward medium with recombinant protein [2] | expression of the Ly6C and Ly6G markers (flow analysis) [3] | expression profile of the genes tested (qRT-PCR) [3] | further results
CC(/C=C1\SC(=S)N(CCCC(=O)Nc2ccc(C(=O)O)c(O)c2)C1=O)=C\c1ccccc1 [ML145] | in vitro antagonist activity | – | – | – | –
COC(=O)c1cnn(-c2ccc(F)cc2F)c1/C=N/NC(=S)NC(C)(C)C [CID2745687] | in vitro antagonist activity | – | – | – | antagonist activity at human GPR35 (GPR35 [1]): in vitro antagonist activity
COc1cccc2c1c(O)c(C(=O)N(C)c1ccc(C(F)(F)F)cc1)c(=O)n2C [Tasquinimod] | – | – | – | – | survival benefit (prostate cancer): failed to show a clear survival benefit
CXCL5: recombinant mouse CXCL5 (BioLegend #573302) (protein, UniProt P50228 41-132, looked up) C-X-C motif chemokine 5: APSSVIAATELRCVCLTVTPKINPKLIANLEVIPAGPQCPTVEVIAKLKNQKEVCLDPEAPVIKKIIQKILGSDKKKAKRNALAVERTASVQ | – | chemoattractants for PMN | did not observe any significant difference | did not observe any significant difference | expression of the Ly6C and Ly6G markers (flow analysis) ([3]; listed as recombinant CXCL5): did not show significant changes
CXCL17: recombinant mouse CXCL17 (BioLegend #585402); chemokine ligand of GPR35 (protein, UniProt Q5UW37 23-119, looked up) C-X-C motif chemokine 17: SPNPGVARSHGDQHLAPRRWLLEGGQECECKDWFLQAPKRKATAVLGPPRKQCPCDHVKGREKKNRHQKHHRKSQRPSRACQQFLKRCHLASFALPL | – | only on monocytes | did not observe any significant difference | did not observe any significant difference | concentration range of GPR35-CXCL17 mediated functional responses (GPR35 [4]): ~50 nM; migration of monocytes toward medium with recombinant protein [5]: concentration-dependent effect; expression of the Ly6C and Ly6G markers (flow analysis) ([3]; listed as recombinant CXCL17): did not show significant changes
